Assay results reported in patent US20240309055A1.

Tests used:
[1] = biological target: AAV2 capsid (AAV2-Luciferase vector) (adeno-associated virus 2) (UniProt P03135); experiment: cell-based or functional assay
[2] = biological target: IgG affixed to the BLI probe; experiment: BLI kinetic analysis, 1:1 fit, protein M 15.6-250 nM, IgG on Anti-Mouse IgG Fc Capture biosensor (mouse IgG per paragraph 316), 37 C; same row: KD error 0.2 nM, X2 2.5, R2 1.00
[3] = biological target: IgG affixed to the BLI probe; experiment: BLI kinetic analysis, 1:1 fit, protein M 15.6-250 nM, IgG on Anti-Mouse IgG Fc Capture biosensor (mouse IgG per paragraph 316), 37 C
[4] = biological target: AAV2 capsid (AAV2-Luciferase vector) (adeno-associated virus 2) (UniProt P03135); experiment: cell-based or functional assay; remark: listed apart in the source
[5] = biological target: human intravenous immunoglobulin gamma (IVIG), 10% Human IVIG (Gamunex) (human); experiment: cell-based or functional assay
[6] = biological target: IgG affixed to the BLI probe; experiment: BLI kinetic analysis, 1:1 fit, protein M 15.6-250 nM, IgG on Anti-Mouse IgG Fc Capture biosensor (mouse IgG per paragraph 316), 37 C; same row: KD error 0.2 nM, X2 1.9, R2 1.00
[7] = biological target: IgG affixed to the BLI probe; experiment: BLI at 37° C, IgG Fc capture biosensor (AHC or AMC, not told which), 1:1 fit, max conc. 50 nM, 6 points
[8] = biological target: IgG affixed to the BLI probe; experiment: BLI at 37° C, IgG Fc capture biosensor (AHC or AMC, not told which), 1:1 fit, max conc. 250 nM, 5 dilutions
[9] = biological target: IgG affixed to the BLI probe; experiment: BLI kinetic analysis, 1:1 fit, protein M 15.6-250 nM, IgG on Anti-Mouse IgG Fc Capture biosensor (mouse IgG per paragraph 316), 37 C; same row: KD error 0.5 nM, X2 2.4, R2 0.99

Chain of UniProt P03135 (P03135 whole entry, the tested form may be a part): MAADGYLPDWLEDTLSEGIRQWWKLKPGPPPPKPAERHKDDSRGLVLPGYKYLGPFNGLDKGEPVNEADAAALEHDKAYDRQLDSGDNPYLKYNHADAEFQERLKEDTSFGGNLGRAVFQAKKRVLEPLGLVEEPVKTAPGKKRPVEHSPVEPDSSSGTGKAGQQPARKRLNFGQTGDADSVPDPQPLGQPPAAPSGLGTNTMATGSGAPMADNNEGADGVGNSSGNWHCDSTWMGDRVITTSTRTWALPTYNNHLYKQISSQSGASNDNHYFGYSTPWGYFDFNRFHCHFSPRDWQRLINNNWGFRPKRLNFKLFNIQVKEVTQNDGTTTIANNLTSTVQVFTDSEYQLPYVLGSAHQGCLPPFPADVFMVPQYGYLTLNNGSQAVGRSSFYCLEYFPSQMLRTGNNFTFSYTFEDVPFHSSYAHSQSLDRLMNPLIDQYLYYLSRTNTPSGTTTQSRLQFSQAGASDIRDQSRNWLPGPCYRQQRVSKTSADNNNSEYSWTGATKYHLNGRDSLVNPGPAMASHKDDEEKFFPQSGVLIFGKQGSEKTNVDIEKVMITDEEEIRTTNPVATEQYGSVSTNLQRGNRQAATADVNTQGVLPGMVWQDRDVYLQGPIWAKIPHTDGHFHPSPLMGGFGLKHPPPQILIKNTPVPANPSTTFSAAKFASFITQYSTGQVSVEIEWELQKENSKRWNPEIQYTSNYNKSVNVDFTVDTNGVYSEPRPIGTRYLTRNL

With “protein M without cleavage of the His tag (from UniProt P47523 37-556)” the molar ratio of protein M to AAV2 particle at which enhancement begins to saturate (protein M molecules per AAV2 particle) [1] was 700000 and the molar ratio of protein M to AAV2 particle below which enhancement of the luciferase signal is abolished (protein M molecules per AAV2 particle) [1] was less than 40000.

Molecule MG WT has a Kd [2] of 11.9 nM, a koff [3] of 0.00033 s⁻¹ and a kon [3] of 28000 M⁻¹ s⁻¹.

B1: protein M (SEQ ID NO:2), His-tag removed by thrombin cleavage (protein)
chain: HHHHHHSSGLVPRGSHMTNLVNQSGYALVASGRSGNLGFKLFSTQSPSAEVKLKSLSLNDGSYQSEIDLSGGANFREKFRNFANELSEAITNSPKGLDRPVPKTEISGLIKTGDNFITPSFKAGYYDHVASDGSLLSYYQSTEYFNNRVLMPILQTTNGTLMANNRGYDDVFRQVPSFSGWSNTKATTVSTSNNLTYDKWTYFAAKGSPLYDSYPNHFFEDVKTLAIDAKDISALKTTIDSEKPTYLIIRGLSGNGSQLNELQLPESVKKVSLYGDYTGVNVAKQIFANVVELEFYSTSKANSFGFNPLVLGSKTNVIYDLFASKPFTHIDLTQVTLQNSDNSAIDANKLKQAVGDIYNYRRFERQFQGYFAGGYIDKYLVKNVNTNKDSDDDLVYRSLKELNLHLEEAYREGDNTYYRVNENYYPGASIYENERASRDSEFQNEILKRAEQNGVTFDENIKRITASGKYSVQFQKLENDTDSSLERMTKAVEGLVTVIGEEKFETVDITGVSSDTNEVKSLAKELKTNALGVKLKL
Work on B1 yielded an AAV2-Luciferase signal, % of PBS control, 33 µg protein M incubated alone with AAV2 (% of PBS control) [4] of 216, an AAV2-Luciferase signal, % of PBS control, 75 µg protein M incubated alone with AAV2 (% of PBS control) [4] of 208 and an AAV2-Luciferase signal, % of no-IVIG control, at 8:1 molar ratio (33 µg protein M, 12.5 µg IVIG) (% of no-IVIG control) [5] of 194. For the same molecule, the AAV2-Luciferase signal, % of no-IVIG control, at 20:1 molar ratio (75 µg protein M, 12.5 µg IVIG) (% of no-IVIG control) [5] was 256, the AAV2-Luciferase signal, % of no-IVIG control, at protein M:IgG molar ratio 0.5:1 (% of no-IVIG control) [5] was 40 and the AAV2-Luciferase signal, % of no-IVIG control, at protein M:IgG molar ratio 1:1 (% of no-IVIG control) [5] was 52. The AAV2-Luciferase signal, % of no-IVIG control, at protein M:IgG molar ratios greater than 2:1 (12.5 µg IVIG) (% of no-IVIG control) [5] was 108 to 193 and the molar ratio of protein M to IgG sufficient to prevent AAV2 neutralization (protein M molecules per IgG molecule) [5] was 2.

B2: MG 40 (protein, part only)
chain: SLSLNDGSYQSEIDLSGGANFREKFRNFANELSEAITNSPKGLDRPVPKTEISGLIKTGDNFITPSFKAGYYDHVASDGSLLSYYQSTEYFNNRVLMPILQTTNGTLMANNRGYDDVFRQVPSFSGWSNTKATTVSTSNNLTYDKWTYFAAKGSPLYDSYPNHFFEDVKTLAIDAKDISALKTTIDSEKPTYLIIRGLSGNGSQLNELQLPESVKKVSLYGDYTGVNVAKQIFANVVELEFYSTSKANSFGFNPLVLGSKTNVINDLFASKPFTHIDLTQVPLQNSDNSAIDANKLKQAVGDIYNYRRFERQFQGYFAGGYIDKYLVKNVNTNKDSDDDLVYRSLKELNLHLEEAYREGDNTYYRVNENYYPGASIYENERASRDSEFQNEILKRAEQNGVTFDEN
modifications: N-terminal His-tag and thrombin site
Molecule B2 has a Kd [6] of 10.1 nM, a koff [3] of 0.00031 s⁻¹ and a kon [3] of 31000 M⁻¹ s⁻¹.

B3: MG66* (modified M. genitalium protein M MG66 with Y338) (protein)
chain: SLSLNDGSYQSEIDLSGGANFREKFRNFANELSEAITNSPKGLDRPVPKTEISGLIKTGDNFITPSFKAGYYDHVAEDGSLLSYYQSTEYFNNRVLMPILQTTNGTLMANNRGYDDVFRQVPRFPGWSNTKPTTVSTSNNLTYDKWTYFAAKGSPLYDQYPNHTFEDVKTLAIDAKDISALKTTIDSEKPTYLIIRGLSGDGSQLNELQLPESVKKVSLYGDYTGVNVAKQIFANVVELEFYSTSKANSFGFNPLVLGSKTNVIYDLFVSKPFTHIDLTQVPLQNSDNSAIDANKLKQAVGDIYNYRRFERQFQGYFAGGYIDKYLVKNVNTNKDSDDDLVYRSLKELNLHLEEAYREGDNTYYRVNENYYPGASIYENERASRDSEFQNEILKRAEQNGVTFDEN
Molecule B3 has a Kd [7] of 0.69 nM, a koff [7] of 5.55e-05 s⁻¹ and a kon [7] of 80100 M⁻¹ s⁻¹.

B4: MG29 (modified M. genitalium protein M MG29, N338) (protein, not shown: small tags and cut ends)
chain: SLSLNDGSYQSEIDLSGGANFREKFRNFANELSEAITNSPKGLDRPVPKTEISGLIKTGDNFITPSFKAGYYDHVAEDGSLLSYYQSTEYFNNRVLMPILQTTNGTLMANNRGYDDVFRQVPRFPGWSNTKATTVSTSNNLTYDKWTYFAAKGSPLYDQYPNHTFEDVKTLAIDAKDISALKTTIDSEKPTYLIIRGLSGNGSQLNELQLPESVKKVSLYGDYTGVNVAKQIFANVVELEFYSTSKANSFGFNPLVLGSKTNVINDLFVSKPFTHIDLTQVTLQNSDNSAIDANKLKQAVGDIYNYRRFERQFQGYFAGGYIDKYLVKNVNTNKDSDDDLVYRSLKELNLHLEEAYREGDNTYYRVNENYYPGASIYENERASRDSEFQNEILKRAEQNGVTFDEN
For B4, the Kd [8] was 7.9 nM, the koff [8] was 0.00034 s⁻¹ and the kon [8] was 43000 M⁻¹ s⁻¹.

B5: MG WT* (truncated M. genitalium protein M, amino acids 74-479, with Y338) (protein)
chain: SLSLNDGSYQSEIDLSGGANFREKFRNFANELSEAITNSPKGLDRPVPKTEISGLIKTGDNFITPSFKAGYYDHVASDGSLLSYYQSTEYFNNRVLMPILQTTNGTLMANNRGYDDVFRQVPSFSGWSNTKATTVSTSNNLTYDKWTYFAAKGSPLYDSYPNHFFEDVKTLAIDAKDISALKTTIDSEKPTYLIIRGLSGNGSQLNELQLPESVKKVSLYGDYTGVNVAKQIFANVVELEFYSTSKANSFGFNPLVLGSKTNVIYDLFASKPFTHIDLTQVTLQNSDNSAIDANKLKQAVGDIYNYRRFERQFQGYFAGGYIDKYLVKNVNTNKDSDDDLVYRSLKELNLHLEEAYREGDNTYYRVNENYYPGASIYENERASRDSEFQNEILKRAEQNGVTFDEN
For B5, the Kd [7] was 0.8 nM, the koff [7] was 6.73e-05 s⁻¹ and the kon [7] was 83800 M⁻¹ s⁻¹.

B6: MG 31 (protein, part only)
chain: SLSLNDGSYQSEIDLSGGANFREKFRNFANELSEAITNSPKGLDRPVPKTEISGLIKTGDNFITPSFKAGYYDHVASDGSLLSYYQSTEYFNNRVLMPILQTTNGTLMANNRGYDDVFRQVPSFSGWSNTKATTVSTSNNLTYDKWTYFAAKGSPLYDSYPNHFFEDVKTLAIDAKDISALKTTIDSEKPTYLIIRGLSGNGSQLNELQLPESVKKVSLYGDYTGVNVAKQIFANVVELEFYSTSKANSFGFNPLVLGSKTNVINDLFASKPFTHIDLTQVTLQNSDNSAIDANKLKQAIGDIYNYRRFERQFQGYFAGGYIDKYLIKIVNTNPDVDDDIVYRSLKELNLHLEEAYREGDNIYYRVNENYYPGASIYENERASRDSEFQNEILKRAEQNGVTFDEN
modifications: N-terminal His-tag and thrombin site
B6 showed a Kd [9] of 15.5 nM, a koff [3] of 0.00047 s⁻¹ and a kon [3] of 30000 M⁻¹ s⁻¹.
